# Experimental data reported in patent publication US20250368978A1, “SQUALENE HOPENE CYCLASE VARIANTS FOR PRODUCING SCLAREOLIDE” (INTERNATIONAL FLAVORS & FRAGRANCES INC., priority 2022, published 2025).
# Where a chain is given by its changes, count along the chain named. Names and notes keep the numbering of the source.
# B1: Q178S: GmSHC mutation Q178S selected by site-saturation mutagenesis (protein)
# chain: MSPADISTKSSSFQRLDNMLPEAVSSACDWLIDQQKPDGHWVGPVESNACMEAQWCLALWFLGQEDHPLRPRLAQALLEMQREDGSWGIYVGADHGDINTTVEAYAALRSMGYAADMPIMAKSAAWIQQKGGLRNVRVFTRYWLALIGEWPWDKTPNLPPEIIWLPDNFIFSIYNFASWARATMMPLTILSARRPSRPLLPENRLDGLFPEGRENFDYELPVKGEEDLWGRFFRAADKGLHSLQSFPVRRFVPREAAIRHVIEWIIRHQDADGGWGGIQPPWIYGLMALSVEGYPLHHPVLAKAMDALNDPGWRRDKGDASWIQATNSPVWDTMLAVLALHDAGAEDRYSPQMDKAIGWLLDRQVRVKGDWSIKLPDTEPGGWAFEYANDKYPDTDDTAVALIALAGCRHRPEWRERDIEGAISRGVNWLLAMQSSSGGWGAFDKDNNRSILTKIPFCDFGEALDPPSVDVTAHVLEAFGLLGISRNHPSVQKALAYIRSEQERNGAWFGRWGVNYVYGTGAVLPALAAIGEDMTQPYIVRACDWLMSVQQENGGWGESCASYMDINAVGHGVATASQTAWALIGLLAAKRPKDREAIARGCQFLIERQEDGSWTEEEYTGTGFPGYGVGQAIKLDDPSLPDRLLQGAELSRAFMLRYDLYRQYFPVMALSRARRMMKEDASAAA
# modifications: Gluconobacter morbifer
# notes: GmSHC mutation Q178S selected by site-saturation mutagenesis
# B2: A683E: GmSHC mutation A683E in the C-terminal domain (protein)
# chain: B1 chain with S178Q, A683E
# modifications: Gluconobacter morbifer
# notes: GmSHC mutation A683E in the C-terminal domain
# B3: Y284W: GmSHC variant Y284W from site saturation mutagenesis (protein)
# chain: B1 chain with S178Q, Y284W
# B4: M184T: GmSHC mutant M184T from site saturation mutagenesis (protein)
# chain: B1 chain with S178Q, M184T
# modifications: Gluconobacter morbifer
# notes: GmSHC mutant M184T from site saturation mutagenesis
# B5: V45L + Q54E + V222Q + Y284W + R249R + 1278T + T326S: GmSHC variant with these substitutions relative to SEQ ID NO: 2 (protein)
# chain: B1 chain with V45L, Q54E, S178Q, V222Q, I278T, Y284W, T326S
# modifications: Gluconobacter morbifer
# B6: V45L + Q54E + V222K + R249R + I278T + T326S: GmSHC variant with these substitutions relative to SEQ ID NO: 2 (protein)
# chain: B1 chain with V45L, Q54E, S178Q, V222K, I278T, T326S
# modifications: Gluconobacter morbifer
# B7: V45L + Q54E + R249R + I278A + T326S: GmSHC variant with these substitutions relative to SEQ ID NO: 2 (protein)
# chain: B1 chain with V45L, Q54E, S178Q, I278A, T326S
# modifications: Gluconobacter morbifer
# B8: V45L + Q54E + R249R + I278T + T326S + A574A: GmSHC variant with these substitutions relative to SEQ ID NO: 2 (protein)
# chain: B1 chain with V45L, Q54E, S178Q, I278T, T326S
# modifications: Gluconobacter morbifer
# B9: V45L + Q54E + V222R + I278T + T326S + R348R: GmSHC variant with these substitutions relative to SEQ ID NO: 2 (protein)
# chain: B1 chain with V45L, Q54E, S178Q, V222R, I278T, T326S
# modifications: Gluconobacter morbifer
# B10: V45L + Q54E + Q178S + V222R + 1278T + T326S: GmSHC variant with these substitutions relative to SEQ ID NO: 2 (protein)
# chain: B1 chain with V45L, Q54E, V222R, I278T, T326S
# modifications: Gluconobacter morbifer
# B11: V45L + Q54E + V222Q + R249R + I278T + T326S + A683E: GmSHC variant with these substitutions relative to SEQ ID NO: 2 (protein)
# chain: B1 chain with V45L, Q54E, S178Q, V222Q, I278T, T326S, A683E
# modifications: Gluconobacter morbifer
# B12: V45L + Q54E + Q178S + V222K + I278S + T326S: GmSHC variant with these substitutions relative to SEQ ID NO: 2 (protein)
# chain: B1 chain with V45L, Q54E, V222K, I278S, T326S
# modifications: Gluconobacter morbifer
# B13: V45L + Q54E + V222K + I278A + T326S: GmSHC variant with these substitutions relative to SEQ ID NO: 2 (protein)
# chain: B1 chain with V45L, Q54E, S178Q, V222K, I278A, T326S
# modifications: Gluconobacter morbifer
# Experiment: Effect of single mutations of GmSHC on activity (site saturation mutagenesis / summary of variants)
# Type: biochemical, Gluconobacter morbifer
# Conditions: single position in GmSHC, SEQ ID NO: 2 numbering
# Source text: Three different approaches were taken to generate SHC variants: rational mutagenesis (site-directed mutagenesis), semi-rational mutagenesis (via site-saturation library), and random mutagenesis (error prone PCR). Variants were expressed in a heterologous system and screened by GC.
# To improve the conversion of HFA to sclareolide, GmSHC was mutated at one or more of the residues at position 45, 54, 178, 184, 222, 278, 284, 326, 348, 574 and 683 of SEQ ID NO: 2. Silent mutations at positions 249, 348, and 574 identified in an error prone library, were also introduced in the GmSHC of SEQ ID NO: 2.
row,Molecule,effect of mutation on activity
1,B1,improving activity
2,B2,positive effect on activity
3,B3,increases activity
4,B4,increase in activity

# Experiment: SHC variant screening reactions: conversion of HFA to sclareolide by freeze-dried whole cells, GC analysis
# Type: biochemical, Gluconobacter morbifer
# Conditions: 20 mg/mL HFA, 50% enzyme loading; relative to initial mutant
# Method: SHC Variant Enzyme Expression. Wild-type and the GmSHC variants of Table 5 were individually cloned into pET28a(+). These DNA constructs were transformed into Lemo21 (DE3) E. coli and plated onto agar plates containing Kanamycin. These were incubated overnight at 37° C. A single bacterial colony was picked and used to inoculate 10 mL LB+Kanamycin in a 50 mL falcon tube. This primary culture was incubated overnight at 37° C. with agitation. These cultures (10 mL) were used to inoculate 1L LB+Kanamycin in a shake flask, which was subsequently incubated at 37° C. at 180 rpm for about 4 hours. Protein expression was then induced with the addition of 0.4 mM IPTG and 0.2 mM L-rhamnose. The incubator temperature was lowered to 25° C. and the cultures further incubated at 180 rpm overnight. The next day, the cultures were centrifuged at 4000 rpm for 10 minutes and the supernatant discarded. Cell pellets were resuspended in 0.1 M Potassium phosphate buffer pH 7.4 and exposed to 1 round of freeze/thawing before lyophilization and then use in the reaction assay.
# SHC Variant Screening Reactions. Sodium citrate buffer 0.2 M, pH 5 was prepared and 500 μL of this buffer was added to freeze-dried whole cells of each variant (from 1 L shake flask fermentation of E. coli transformed with desired variant plasmid). The results were obtained with an enzyme loading of 50% (w/w). Subsequently, HFA (20 mg/mL) was added to the buffer/enzyme mix. The reactions were incubated at 25° C. with agitation for 72 hours. To stop the reaction and extract the products, a 2X volume of 3:2, heptane: isopropanol was added to each reaction. These were then incubated at 37° C. for 30 minutes with agitation to mix thoroughly. The reactions were centrifuged for 10 minutes at 4000 rpm to pellet any cellular material. The upper organic layer was then removed and placed in a clean gas chromatography (GC) vial.
# GC Analysis Method. A GC analytical method was used to detect each of the starting materials and products used in the screening reactions. Due to the volume of samples generated, a fast method was developed with a run time of only 4.5 minutes.
# No metal ions were included in the reaction.
# Further analysis was conducted to identify one or more optimal SHC enzymes. In particular, substrate loading was increased to 20 mg/mL and incubation with a reduced enzyme loading (50%).
row,Molecule,Fold improvements (sclareolide production) [Fold]
1,B5,46.2
2,B6,33.2
3,B7,25.6
4,B8,27
5,B9,60
6,B10,43.8
7,B11,44.6
8,B12,37.3
9,B13,20.4
